Source: US7968692B2, “Elongase genes and uses thereof” (Abbott Laboratories, priority 1998, dated 2011)

Assays:
[1] = system: S. cerevisiae 334; test: Human elongase HSELO1 activity in yeast; type: cell-based, Saccharomyces cerevisiae
Procedure: The construct pRAE-58-A1 was transformed into S. cerevisiae 334 (Hoveland et al., supra) and screened for elongase activity. The negative control strain was S. cerevisiae 334 containing pYX242 vector. The cultures were grown for 24 hours at 30° C., in selective media (Ausubel et al., supra), in the presence of 25 μM of GLA or AA. In this study, DGLA or adrenic acid (ADA, 22:4n-6), respectively, was the predicted product of human elongase activity. […] Thus, the human elongase converts both 18 and 20 carbon chain long PUFAs to their respective elongated fatty acids.
To further confirm the substrate specificity of the human elongation enzyme, described above and referred to herein as HSELO1, the recombinant yeast strain 334(pRAE-58-A1) was grown in minimal media containing n-6 fatty acids GLA, AA, or n-3 fatty acids ALA, STA, or EPA. […] The levels of these fatty acids were 7.29% (DGLA), 6.26% (ADA), 6.15% (ETrA), 10.06% (ETA), and 6.66% (DPA), respectively, of the total fatty acids in the strain containing the pRAE-58-A1 sequence.
To confirm this hypothesis, 25 μM of exogenous OA was added as a substrate to the recombinant yeast strain 334(pRAE-58-A1).
To determine whether the substrate concentration affects the conversion of 18 and 20 carbon fatty acids to the respective elongated products, two different concentrations of GLA, AA, and EPA were examined (FIG. 52).
Although the addition of more substrates led to higher percentages of the two carbon elongated products, the overall conversion rate decreased by at least 35%.
To further confirm the substrate specificity of HSELO1p, the recombinant yeast strain 334(pRAE-58-A1) was grown in minimal media containing 25 μM of saturated, monounsaturated, or PUFAs. […] However, this is not an increase in the level of OA compared to the samples where PTA was not added, as OA was 25-31% of the total fatty acids in all samples. […] The levels of these fatty acids were 0.74% (C20:2n-6), 2.46% (DGLA), and 2.14% (ADA), respectively, of the total fatty acids in the lysates of 334(pRAE-58-A1). […] HSELO1p is also involved in the elongation of n-3 PUFAs ALA, STA, and EPA, but not DPA (FIG. 53C). […] The levels of these fatty acids were 1.03% ETrA, 2.24% (ETA), and 3.19% (DPA), respectively, of the total fatty acids in the strain containing the pRAE-58-A1 sequence.

[2] = system: S. cerevisiae 334; test: Mouse elongase MELO4 activity in yeast; type: cell-based, Saccharomyces cerevisiae
Procedure: The construct pRAE-84 was transformed into S. cerevisiae 334 (Hoveland et al., supra) and screened for elongase activity. The negative control strain was S. cerevisiae 334 containing pYX242 vector. The cultures were grown for 42-48 hours at 30° C., in selective media (Ausubel et al., supra), in the presence of 25 μM of GLA, AA, ADA, STA, EPA, or DPA. […] However, there were accumulations of ADA, ω6-tetracosatetraenoic acid (TTA, C24:4n-6), ETA, DPA, and ω3-tetracosapentaenoic acid (TPA, C24:5n-3), respectively (FIG. 56). The n-6 fatty acid substrate AA was converted to ADA, which was subsequently converted to TTA, and the n-3 fatty acid EPA was converted to DPA, which was subsequently converted to TPA. The levels of these fatty acids were 0.64% (ADA), 1.07% (TTA), 1.47% (DPA), and 7.06% (TPA), respectively, of the total fatty acids in the strain containing the pRAE-84 sequence. […] The expression of MELO4 in yeast results in the conversion of C20 and C22 fatty acids to the respective elongated products. The conversion rate of C22 to C24 fatty acids is much greater when the exogenously added substrate is […].
To further confirm the substrate specificity of MELO4 protein (MELO4), the recombinant yeast strain 334(pRAE-84) was grown in minimal media containing 25 μM of saturated, monounsaturated, or polyunsaturated fatty acids. […] When AA was added exogenously, the levels of product fatty acids were 0.5% (ADA) and 0.39% (TTA), and when ADA was added exogenously, the level of product fatty acid was 1.3% (TTA) of the total fatty acids in the strain containing the pRAE-84 sequence. […] MELO4p is also involved in the elongation of GLA to DGLA. The lipid profile of the strain containing the pRAE-84 sequence, in presence of GLA, had 0.43% of DGLA, which represented 14.7% conversion of GLA to DGLA. MELO4p is also involved in the elongation of n-3 PUFAs EPA and DPA (FIG. 53C). […] When EPA was added, the levels of these fatty acids were 1.21% (DPA) and 3.38% (TPA), and when DPA was added, the level of the product fatty acid was 3.09% (TPA) of the total fatty acids in the strain containing the pRAE-84 sequence. […] MELO4p is also involved in the elongation of STA to C22:4n-3. When STA was added, the levels of fatty acids produced by two-carbon elongation were 0.3% ETA and 0.23% C22:4n-3. […] MELO4p also appeared to be involved in the elongation of ALA; however, the small amount of the fatty acid produced by two-carbon elongation (0.16% of ETrA) may not be significant.

[3] = 25 μM AA added exogenously, FIG. 57B
[4] = 25 μM ADA added exogenously, FIG. 57B
[5] = 25 μM DPA added, second experiment
[6] = 25 μM EPA added, second experiment
[7] = C22 substrate ADA added, 25 μM, FIG. 56
[8] = C22 substrate printed as EPA, 25 μM, FIG. 56

B1: HSELO1: human elongase from liver cDNA (SEQ ID NO:3), expressed in yeast from pRAE-58-A1 (protein, listed as Homo sapiens)
chain: MEHFDASLSTYFKALLGPRDTRVKGWFLLDNYIPTFICSVIYLLIVWLGPKYMRNKQPFSCRGILVVYNLGLTLLSLYMFCELVTGVWEGKYNFFCQGTRTAGESDMKIIRVLWWYYFSKLIEFMDTFFFILRKNNHQITVLHVYHHASMLNIWWFVMNWVPCGHSYFGATLNSFIHVLMYSYYGLSSVPSMRPYLWWKKYITQGQLLQFVLTIIQTSCGVIWPCTFPLGWLYFQIGYIISLIALFTNFYIQTYNKKGASRRKDHLKDHQNGSVAAVNGHTNSFSPLENNVKPRKLRKD
- level of ADA, of total fatty acids ([1]; 25 μM AA, 24 hours at 30° C., FIG. 45): 1.21%
- conversion of AA to ADA ([1]; 25 μM AA, FIG. 52): 27.5%
- level of ADA, of the total fatty acids ([1]; 25 μM AA, FIG. 52): 2.91%
- conversion of AA to ADA ([1]; 25 μM AA, FIG. 53B): 27.1%
- level of ADA, of the total fatty acids ([1]; 25 μM AA, FIG. 53B): 2.14%
- conversion of ALA to ETrA ([1]; 25 μM ALA, FIG. 53C): 22.2%
- level of ETrA, of the total fatty acids ([1]; 25 μM ALA, FIG. 53C): 1.03%
- conversion of EPA to DPA ([1]; 25 μM EPA, FIG. 52): 70.3%
- level of DPA, of the total fatty acids ([1]; 25 μM EPA, FIG. 52): 4.82%
- conversion of EPA to DPA ([1]; 25 μM EPA, FIG. 53C): 39.5%
- level of DPA, of the total fatty acids ([1]; 25 μM EPA, FIG. 53C): 3.19%
- level of DGLA, of total fatty acids ([1]; 25 μM GLA, 24 hours at 30° C., FIG. 45): 2.75%
- conversion of GLA to DGLA ([1]; 25 μM GLA, FIG. 52): 62.4%
- level of DGLA, of the total fatty acids ([1]; 25 μM GLA, FIG. 52): 3.95%
- conversion of GLA to DGLA ([1]; 25 μM GLA, FIG. 53B): 51.4%
- level of DGLA, of the total fatty acids ([1]; 25 μM GLA, FIG. 53B): 2.46%
- conversion of LA to C20:2n-6 ([1]; 25 μM LA, FIG. 53B): 13.2%
- level of C20:2n-6, of the total fatty acids ([1]; 25 μM LA, FIG. 53B): 0.74%
- conversion of STA to ETA ([1]; 25 μM STA, FIG. 53C): 61.9%
- level of ETA, of the total fatty acids ([1]; 25 μM STA, FIG. 53C): 2.24%
- conversion of OA to EA ([1]; 25 μM of exogenous OA): 8.9%
- accumulation of EA, of the total fatty acids ([1]; 25 μM of exogenous OA, FIG. 51): 2.25%
- elongation of monounsaturated fatty acids OA and EA ([1]; 25 μM substrate): also not involved
- elongation of saturated fatty acids PA, SA, ARA, BA ([1]; 25 μM substrate, FIG. 53A): not involved
- elongation of n-6 PUFAs DGLA or ADA ([1]; 25 μM substrate, FIG. 53B): but not DGLA or ADA
- elongation of n-3 PUFA DPA ([1]; 25 μM substrate, FIG. 53C): but not DPA
- conversion of AA to ADA ([1]; 100 μM AA, FIG. 52): 15.7%
- level of ADA, of the total fatty acids ([1]; 100 μM AA, FIG. 52): 3.90%
- conversion of EPA to DPA ([1]; 100 μM EPA, FIG. 52): 45.7%
- level of DPA, of the total fatty acids ([1]; 100 μM EPA, FIG. 52): 11.50%
- conversion of GLA to DGLA ([1]; 100 μM GLA, FIG. 52): 39.8%
- level of DGLA, of the total fatty acids ([1]; 100 μM GLA, FIG. 52): 9.56%
- decrease of overall conversion rate ([1]; 100 μM versus 25 μM of substrates GLA, AA, EPA): at least 35%
- OA, of the total fatty acids ([1]; PTA added as a substrate, not an increase, OA was 25-31% in all samples): 12.76%
- endogenous conversion of C16:1n-7 to C18:1n-7 ([1]; endogenous substrate): 20.4%
- endogenous conversion of C18:1n-7 to C20:1n-7 ([1]; endogenous substrate): 58.1%
- conversion of AA to ADA ([1]; substrate AA, FIG. 51): 42.7%
- level of ADA, of the total fatty acids ([1]; substrate AA, FIG. 51): 6.26%
- conversion of ALA to ETrA ([1]; substrate ALA, FIG. 51): 30.4%
- level of ETrA, of the total fatty acids ([1]; substrate ALA, FIG. 51): 6.15%
- conversion of EPA to DPA ([1]; substrate EPA, FIG. 51): 71.7%
- level of DPA, of the total fatty acids ([1]; substrate EPA, FIG. 51): 6.66%
- conversion of GLA to DGLA ([1]; substrate GLA, FIG. 51): 78.3%
- level of DGLA, of the total fatty acids ([1]; substrate GLA, FIG. 51): 7.29%
- conversion of STA to ETA ([1]; substrate STA, FIG. 51): 79.2%
- level of ETA, of the total fatty acids ([1]; substrate STA, FIG. 51): 10.06%

B2: MELO4: mouse PUFA elongation enzyme from brain cDNA (SEQ ID NO:5), expressed in yeast from pRAE-84 (protein, listed as Mus musculus)
chain: MEQLKAFDNEVNAFLDNMFGPRDSRVRGWFLLDSYLPTFILTITYLLSIWLGNKYMKNRPALSLRGILTLYNLAITLLSAYMLVELILSSWEGGYNLQCQNLDSAGEGDVRVAKVLWWYYFSKLVEFLDTIFFVLRKKTNQITFLHVYHHASMFNIWWCVLNWIPCGQSFFGPTLNSFIHILMYSYYGLSVFPSMHKYLWWKKYLTQAQLVQFVLTITHTLSAVVKPCGFPFGCLIFQSSYMMTLVILFLNFYIQTYRKKPVKKELQEKEVKNGFPKAHLIVANGMTDKKAQ
- conversion of AA to ADA [2, 3]: 8.7%
- conversion of ADA to TTA [2, 3]: 43.8%
- level of ADA, of the total fatty acids [2, 3]: 0.5%
- level of TTA, of the total fatty acids [2, 3]: 0.39%
- conversion of AA to ADA ([2]; 25 μM AA added, FIG. 56): 10.4%
- conversion of ADA to TTA ([2]; 25 μM AA added, FIG. 56): 62.6%
- level of ADA, of the total fatty acids ([2]; 25 μM AA added, FIG. 56): 0.64%
- level of TTA, of the total fatty acids ([2]; 25 μM AA added, FIG. 56): 1.07%
- conversion of ADA to TTA [2, 4]: 7.3%
- level of TTA, of the total fatty acids [2, 4]: 1.3%
- level of ETrA ([2]; 25 μM ALA, may not be significant): 0.16%
- conversion of DPA to TPA [2, 5]: 46.4%
- level of TPA, of the total fatty acids [2, 5]: 3.09%
- conversion of DPA to TPA ([2]; 25 μM EPA added, FIG. 56): 82.8%
- conversion of EPA to DPA ([2]; 25 μM EPA added, FIG. 56): 32.7%
- level of DPA, of the total fatty acids ([2]; 25 μM EPA added, FIG. 56): 1.47%
- level of TPA, of the total fatty acids ([2]; 25 μM EPA added, FIG. 56): 7.06%
- conversion of DPA to TPA [2, 6]: 73.6%
- conversion of EPA to DPA [2, 6]: 24.0%
- level of DPA, of the total fatty acids [2, 6]: 1.21%
- level of TPA, of the total fatty acids [2, 6]: 3.38%
- elongation of GLA to DGLA ([2]; 25 μM GLA, 42-48 hours at 30° C., FIG. 56): GLA was not elongated
- conversion of GLA to DGLA ([2]; 25 μM GLA, FIG. 57B): 14.7%
- level of DGLA in lipid profile ([2]; 25 μM GLA, FIG. 57B): 0.43%
- conversion of ETA to C22:4n-3 ([2]; 25 μM STA added): 43.4%
- conversion of STA to ETA ([2]; 25 μM STA added): 11.1%
- level of C22:4n-3 ([2]; 25 μM STA added): 0.23%
- level of ETA ([2]; 25 μM STA added): 0.3%
- elongation of monounsaturated fatty acids PTA, OA, or EA ([2]; 25 μM substrate): also not involved
- elongation of saturated fatty acids PA, SA, ARA, or BA ([2]; 25 μM substrate, FIG. 57A): not involved
- conversion of ADA to TTA [2, 7]: 9.2%
- level of TTA, of the total fatty acids [2, 7]: 2.4%
- conversion of C22 substrate to TPA [2, 8]: 43.9%
- level of TPA, of the total fatty acids [2, 8]: 3.82%
